Source: US8241627B2, “Modified polypeptides stabilized in a desired conformation and methods for producing same” (The Center for Blood Research, Inc., priority 2000, dated 2012)

Assays:
ICAM-3 = molecular target: T1, ICAM-3 (Homo sapiens, UniProt P32942); experiment: BIAcore binding of soluble αL I-domains to ICAM-3; conditions: 1:1 interaction model
T1 sequence (P32942 30-485 limits assumed): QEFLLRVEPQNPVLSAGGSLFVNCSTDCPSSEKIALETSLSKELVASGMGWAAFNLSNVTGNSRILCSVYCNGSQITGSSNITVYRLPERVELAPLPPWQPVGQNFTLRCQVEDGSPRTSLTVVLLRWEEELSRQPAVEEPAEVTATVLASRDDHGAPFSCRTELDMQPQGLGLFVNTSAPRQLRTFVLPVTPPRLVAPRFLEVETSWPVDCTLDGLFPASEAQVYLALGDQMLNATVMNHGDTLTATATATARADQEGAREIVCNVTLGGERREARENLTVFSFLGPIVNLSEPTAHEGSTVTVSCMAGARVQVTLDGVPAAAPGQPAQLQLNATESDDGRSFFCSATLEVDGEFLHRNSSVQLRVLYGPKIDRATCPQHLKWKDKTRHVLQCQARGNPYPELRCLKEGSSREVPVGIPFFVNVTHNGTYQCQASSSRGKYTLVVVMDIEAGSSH
Experimental: (§1) Briefly, recombinant mutant αL I-domain stabilized in the open conformation (K287C/K294C), or recombinant wild-type αL I-domain from amino acid residue G128 to Y307, were cloned into pET11b (Novagen) and expressed in E. coli induced with 1 mM IPTG for 4 hours. The recombinant proteins were purified from inclusion bodies by solubilization of inclusion bodies in 6M guanidine HCl and were refolded by dilution in the presence of 0.1 mM Cu^2+/phenanthrolin to enhance formation of disulfide bonds. Protein was concentrated by ammonium sulfate precipitation, dialyzed, and purified over a monoQ ion-exchange column. […] The recombinant proteins were then purified by gel filtration and concentrated by Centriprep. For BIAcore™ analysis, recombinant ICAM-1, ICAM-2 and ICAM-3 Fc chimeras were immobilized on the BIAcore™ sensor chip by an amine-coupling method. Recombinant αL I-domains were flowed in, and BIAcore™ assays were performed with Tris-buffered saline supplemented with 1 mM MgCl2 or 2 mM EDTA, at a flow rate of 10 μl/minute at 25° C.

ICAM-2 = molecular target: T2, ICAM-2 (Homo sapiens, UniProt P13598); experiment: BIAcore binding of soluble αL I-domains to ICAM-2; conditions: 1:1 interaction model
T2 sequence (P13598 25-223 limits assumed): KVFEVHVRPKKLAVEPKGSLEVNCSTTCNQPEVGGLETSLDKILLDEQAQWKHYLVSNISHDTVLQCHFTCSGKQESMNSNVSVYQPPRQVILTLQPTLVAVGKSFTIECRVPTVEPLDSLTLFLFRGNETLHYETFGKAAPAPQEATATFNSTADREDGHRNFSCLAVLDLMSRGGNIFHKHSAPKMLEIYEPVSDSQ
Experimental: as §1

[1] = test system: T-lymphocytes in peripheral lymph node high endothelial venules; experiment: Intravital microscopy of lymphocyte behaviour in peripheral lymph node high endothelial venules; assay type: in vivo; conditions: mouse
Experimental: Moreover, the ability of the open I-domain mutants to inhibit LFA-1 function in vivo was tested by visualizing microcirculation in the peripheral lymph node (LN) with intravital microscopy. Briefly, a small bolus (20-50 µl) of LN cell suspensions from […] mice were retrogradely injected through a femoral artery catheter and visualized in the subiliac LN by fluorescent epi-illumination from a video-triggered xenon arc stroboscope. After recording control […] cell behavior in the absence of 1-domain, the mouse was pretreated by intra-arterial injection of 1-domain (10 µg/g of weight) 5 minutes before T^GFP cell injection. All scenes were recorded on videotape and off-line analysis was done. The rolling fraction was calculated as percentage of rolling cells amount the total number of TGFβ cells that entered a venule. The sticking (firm adhesion) fraction was determined as the percentage of T^GFP cells becoming firmly adherent for >20 seconds in the number of T^GFP cells that rolled in a venule. Results were semi-quantitatively scored as follows: −: 0%, .+−.: 0-5%, +: 5-20%, ++: 20-40%, +++: 40-60%, ++++: 60-80%, +++++:80-100%.

Koff, open I-domain binding to ICAM-3 (ICAM-3): 0.0749 s⁻¹ | Kon, open I-domain binding to ICAM-3 (ICAM-3): 19000 M⁻¹ s⁻¹ | Koff, open I-domain binding to ICAM-2 (ICAM-2): 0.0118 s⁻¹ | Kon, open I-domain binding to ICAM-2 (ICAM-2): 23000 M⁻¹ s⁻¹
B1: K287C/K294C: human αL (LFA-1) I-domain with K287 and K294 replaced by cysteines; high affinity locked open; tested in intact LFA-1, cell-surface and soluble forms (protein)
chain: GNVDLVFLFDGSMSLQPDEFQKILDFMKDVMKKLSNTSYQFAAVQFSTSYKTEFDFSDYVKRKDPDALLKHVKHMLLLTNTFGAINYVATEVFREELGARPDATKVLIIITDGEATDSGNIDAAKDIIRYIIGIGKHFQTKESQETLHKFASKPASEFVCILDTFECLKDLFTELQKKIY
notes: human αL (LFA-1) I-domain with K287 and K294 replaced by cysteines; tested in intact LFA-1, cell-surface and soluble forms
firm adhesion of T-lymphocytes to high endothelial venules ([1]; injection of I-domain): effectively blocked | lymphocyte rolling mediated by L-selectin and PNAd ([1]; injection of I-domain): not compromised | Fraction transmigration ([1]; intra-arterial I-domain 10 μg/g): − (−: 0%) | Fraction Rolling ([1]; intra-arterial I-domain 10 μg/g 5 minutes before T-GFP cell injection): ++++ (++++: 60-80%) | Fraction firm adhesion ([1]; intra-arterial I-domain 10 μg/g, adherent >20 seconds): ± (.+−.: 0-5%)
